Results published in patent US20140348834A1 (published 2014).
Numbering of substitutions follows the chain as printed.

Assays:
mouse IL-17A [1] = molecular target: T1, mouse IL-17A (mouse, UniProt Q62386 26-158, limits assumed); experiment: SPR (Biacore 3000), antibody captured by anti-Fc, antigen in solution;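 note: rates obtained by global fitting of a one-to-one Langmuir model over a series of antigen concentrations, Kd derived as koff over kon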
T1 construct: Purified recombinant protein in SPR; also called MuIL-17A; murine IL-17A
T1 sequence (looked up): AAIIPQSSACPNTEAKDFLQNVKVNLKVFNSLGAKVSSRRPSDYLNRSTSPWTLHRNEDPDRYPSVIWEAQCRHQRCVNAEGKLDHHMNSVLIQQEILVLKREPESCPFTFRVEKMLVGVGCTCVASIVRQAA
Experimental: (§1) The binding of antibodies to purified recombinant human, cyno, rat, mouse, rabbit IL-17 and human IL-17A/F were determined by surface plasmon resonance-based measurements with a Biacore® 3000 instrument (Biacore® AB, Uppsala, Sweden) using running HBS-EP (10 mM HEPES [pH 7.4], 150 mM NaCl, 3 mM EDTA, and 0.005% surfactant P20) at 25° C. […] Approximately 5000 RU of goat anti-mouse or anti-human IgG (Fcγ) fragment specific polyclonal antibody (Pierce Biotechnology Inc, Rockford, Ill.) diluted in 10 mM sodium acetate (pH 4.5) was directly immobilized across a CM5 research grade biosensor chip using a standard amine coupling kit according to manufacturer's instructions and procedures at 25 μg/ml. Unreacted moieties on the biosensor surface were blocked with ethanolamine. Modified carboxymethyl dextran surface in flowcell 2 and 4 was used as a reaction surface. Unmodified carboxymethyl dextran without goat anti-mouse or anti-human IgG in flow cell 1 and 3 was used as the reference surface. For kinetic analysis, rate equations derived from the 1:1 Langmuir binding model were fitted simultaneously to association and dissociation phases of all eight injections (using global fit analysis) with the use of Biaevaluation 4.0.1 software. Purified antibodies were diluted in HEPES-buffered saline for capture across goat anti-mouse or anti-human IgG specific reaction surfaces. Antibodies to be captured as a ligand (25 μg/ml) were injected over reaction matrices at a flow rate of 5 μl/min. The association and dissociation rate constants, kon (unit M-1s-1) and koff (unit s-1) were determined under a continuous flow rate of 25 μl/min. Rate constants were derived by making kinetic binding measurements at ten different antigen concentrations ranging from 10 nM to 200 nM. The equilibrium dissociation constant (unit M) of the reaction between antibodies and recombinant purified IL-17 antigens was then calculated from the kinetic rate constants by the following formula: KD=koff/kon. Binding was recorded as a function of time and kinetic rate constants are calculated. In this assay, on-rates as fast as 10⁶ M⁻¹ s⁻¹ and off-rates as slow as 10⁻⁶ s⁻¹ can be measured.

human IL-17A/F [2] = molecular target: T2, human IL-17A/F (human, UniProt Q16552 24-155; Q96PD4 31-163); experiment: as above
T2 construct: Recombinant; biotinylated in the ELISA; also called hIL-17A/F; HuIL-17A/F
T2 sequence (Q16552 24-155, chain 1 of 2): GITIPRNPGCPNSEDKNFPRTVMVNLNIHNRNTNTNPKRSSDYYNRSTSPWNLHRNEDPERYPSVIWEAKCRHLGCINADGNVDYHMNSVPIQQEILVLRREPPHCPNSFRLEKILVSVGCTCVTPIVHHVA
T2 sequence (Q96PD4 31-163, chain 2 of 2): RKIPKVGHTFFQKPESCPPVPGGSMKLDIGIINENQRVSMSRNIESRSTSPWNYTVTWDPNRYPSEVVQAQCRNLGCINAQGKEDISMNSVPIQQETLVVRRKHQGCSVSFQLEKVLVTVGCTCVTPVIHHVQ
Experimental: as §1

rat IL-17A [3] = molecular target: T3, rat IL-17A (rat, UniProt Q61453 18-150, limits assumed); experiment: as above
T3 construct: Purified recombinant protein in SPR
T3 sequence (looked up): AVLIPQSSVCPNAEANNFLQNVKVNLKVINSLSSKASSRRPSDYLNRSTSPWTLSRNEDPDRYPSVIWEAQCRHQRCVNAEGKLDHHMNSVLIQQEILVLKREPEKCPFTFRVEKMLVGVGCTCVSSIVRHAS
Experimental: as §1

human IL-17A [4] = molecular target: T4, human IL-17A (human, UniProt Q16552 24-155); experiment: as above
T4 construct: Recombinant; biotinylated in the ELISA; also called hIL-17; hIL17A
T4 sequence (Q16552 24-155): as the sequence (Q16552 24-155, chain 1 of 2) above
Experimental: as §1

cynomolgus monkey IL-17A = molecular target: T5, cynomolgus monkey IL-17A (cynomolgus monkey, UniProt A0A2K5TTB0 24-155); experiment: as above
T5 construct: biotinylated in the ELISA; also called cyno IL-17; Cyno IL-17A
Experimental: as §1

human IL-17A [5] = molecular target: T4, human IL-17A; experiment: cell-based or functional assay
mouse IL-17A [6] = molecular target: T6, mouse IL-17A (mouse, UniProt Q62386 26-158, limits assumed); experiment: SPR Biacore, captured binder
T6 construct: also called MuIL-17A; murine IL17A HIS
T6 sequence (looked up): T1 sequence (looked up)
Experimental: as §1

human IL-17A/F [7] = molecular target: T7, human IL-17A/F (human, UniProt Q16552 24-155; Q96PD4 31-163); experiment: SPR Biacore, captured binder
T7 construct: Heterodimer of IL-17A and IL-17F, purified recombinant; also called HuIL-17A/F; Hu IL-17A/F
T7 sequence (Q16552 24-155 limits assumed, chain 1 of 2): as the sequence (Q16552 24-155, chain 1 of 2) above
T7 sequence (Q96PD4 31-163 limits assumed, chain 2 of 2): as the sequence (Q96PD4 31-163, chain 2 of 2) above
Experimental: as §1

cyno IL-17A = cyno IL-17A (cynomolgus monkey, UniProt A0A2K5TTB0 24-155); experiment: SPR Biacore, captured binder
Experimental: as §1

rat IL-17A [8] = molecular target: T8, rat IL-17A (rat, UniProt Q61453 18-150, limits assumed); experiment: SPR Biacore, captured binder
T8 sequence (looked up): T3 sequence (looked up)
Experimental: as §1

human IL-17A [9] = molecular target: T9, human IL-17A (human, UniProt Q16552 24-155); experiment: SPR Biacore, captured binder
T9 construct: Purified recombinant; biotinylated in the ELISA; also called HuIL-17A; Hu IL-17A
T9 sequence (Q16552 24-155 limits assumed): as the sequence (Q16552 24-155, chain 1 of 2) above
Experimental: as §1

rabbit IL-17A = molecular target: T10, rabbit IL-17A (rabbit); experiment: SPR Biacore, captured binder
T10 construct: also called RabIL-17A
Experimental: as §1

cyno IL-17A, sequence (A0A2K5TTB0 entry or part of it): as the sequence (Q16552 24-155, chain 1 of 2) above, with T3A, P8S, N34S, I77V, N78K, P104R counted along it
T5 sequence (A0A2K5TTB0 entry or part of it): as the sequence (Q16552 24-155, chain 1 of 2) above, with T3A, P8S, N34S, I77V, N78K, P104R counted along it

B1: ML109-10F7 (antibody, V domains shown)
VH: QVQLQQSGAELVRPGTSVTLSCKASGYIFTDYEIHWVKQTPVHGLEWIGVNDPESGGTFYNQKFDGKAELTADKSSSTAYMELRSLTSEDSGVYYCTRYYRYESFYGMDYWGQGTSITVSS
VL: QIVLTQSPAIMSASPGEKVTMTCSASSSISYIYWFQQKPGTSPKRWIYATFELASGVPARFSGSGSGTSYSLTISSMEAEDAATYYCHQRSSYPWTFGGGSKLEIKR
notes: Hybridoma-derived murine mAb; also called 10F7.3D1
With B1 the Kd (mouse IL-17A [1]) was 0.221 nM, the koff (mouse IL-17A [1]) was 0.000354 s⁻¹ and the kon (mouse IL-17A [1]) was 1.6e+06 M⁻¹ s⁻¹. The Kd (human IL-17A/F [2]) was 0.673 nM, the koff (human IL-17A/F [2]) was 0.000686 s⁻¹ and the kon (human IL-17A/F [2]) was 1.02e+06 M⁻¹ s⁻¹. For the same binder, the Kd (rat IL-17A [3]) was 0.197 nM, the koff (rat IL-17A [3]) was 0.000623 s⁻¹ and the kon (rat IL-17A [3]) was 3.17e+06 M⁻¹ s⁻¹. For the same binder, the Kd (human IL-17A [4]) was 0.0626 nM, the koff (human IL-17A [4]) was 0.000159 s⁻¹ and the kon (human IL-17A [4]) was 2.54e+06 M⁻¹ s⁻¹. The Kd (cynomolgus monkey IL-17A) was 0.0684 nM, the koff (cynomolgus monkey IL-17A) was 0.000145 s⁻¹ and the kon (cynomolgus monkey IL-17A) was 2.12e+06 M⁻¹ s⁻¹. For the same binder, the “Potency (pM), IL-17-driven IL-6 production in HS27 cells” value (human IL-17A [5]) was 54 pM.

B2: ML109-6C6 (antibody, V domains shown)
VH: QVQLQQSGAELVRPGASVKLSCKASGYTFSDYEIHWVKQTPVHGLAWIGVIHPGNGGTAYNQKFKDKATLTADKSSSTAYMELSSLTSEDSAVYYCERFLTYEGYFDYWGQGTTLTVSS
VL: SIVMTQTPKFLLVSAGDRVTITCKASQSVNNDVAWYQHKPGQSPKLLINYASNRYTGVPDRFTGSGYGTDFTFTISTVQAEDLAIYFCQQDYGSPYTFGGGTKLEIKR
notes: Hybridoma-derived murine mAb; also called 6C6.3B4
B2 showed a Kd (mouse IL-17A [1]) of 0.357 nM, a koff (mouse IL-17A [1]) of 0.00087 s⁻¹ and a kon (mouse IL-17A [1]) of 2.44e+06 M⁻¹ s⁻¹. For the same binder, the Kd (human IL-17A/F [2]) was 0.189 nM, the koff (human IL-17A/F [2]) was 0.000366 s⁻¹ and the kon (human IL-17A/F [2]) was 1.94e+06 M⁻¹ s⁻¹. It also gave a Kd (rat IL-17A [3]) of 0.142 nM, a koff (rat IL-17A [3]) of 0.000704 s⁻¹ and a kon (rat IL-17A [3]) of 4.95e+06 M⁻¹ s⁻¹. For the same binder, the Kd (human IL-17A [4]) was 0.0187 nM, the koff (human IL-17A [4]) was 6.78e-05 s⁻¹ and the kon (human IL-17A [4]) was 3.63e+06 M⁻¹ s⁻¹. The Kd (cynomolgus monkey IL-17A) was 0.0425 nM, the koff (cynomolgus monkey IL-17A) was 0.000116 s⁻¹ and the kon (cynomolgus monkey IL-17A) was 2.73e+06 M⁻¹ s⁻¹. The “Potency (pM), IL-17-driven IL-6 production in HS27 cells” value (human IL-17A [5]) was 36 pM.

B3: IL17-B6-5 (antibody, V domains shown)
VH: EVQLVQSGAEVKKPGESVKISCKASGGSFRSYGISWVRQAPGQGLEWMGGITHFFGITDYAQKFQGRVTITADESTTTAYMELSGLTSDDTAVYYCAREPNDFWNGYYDTHDFDSWGQGTTVTVSS
VL: EIVLTQSPDFQSVTPKEKVTITCRASQNIGSELHWYQQKPDQSPKLLIKYASHSISGVPSRFSGSGSGTDFTLTINGLEAEDAATYYCHQSDTLPHTFGQGTKVDIK
notes: also called pJP243 B6.1 #5VH / pJP244 B6.1 #5VK
With B3 the Kd (mouse IL-17A [6]) was 0.0395 nM, the koff (mouse IL-17A [6]) was 0.000102 s⁻¹ and the kon (mouse IL-17A [6]) was 2.58e+06 M⁻¹ s⁻¹. The Kd (human IL-17A/F [7]) was 0.00222 nM, the koff (human IL-17A/F [7]) was 2.95e-05 s⁻¹ and the kon (human IL-17A/F [7]) was 1.33e+07 M⁻¹ s⁻¹. The Kd (cyno IL-17A) was 0.00539 nM, the koff (cyno IL-17A) was 6.52e-05 s⁻¹ and the kon (cyno IL-17A) was 1.21e+07 M⁻¹ s⁻¹. It also gave a Kd (rat IL-17A [8]) of 0.00905 nM, a koff (rat IL-17A [8]) of 5.54e-05 s⁻¹ and a kon (rat IL-17A [8]) of 6.12e+06 M⁻¹ s⁻¹. For the same binder, the Kd (human IL-17A [9]) was 0.00318 nM, the koff (human IL-17A [9]) was 2.29e-05 s⁻¹ and the kon (human IL-17A [9]) was 7.2e+06 M⁻¹ s⁻¹. For the same binder, the Kd (rabbit IL-17A) was 0.00317 nM, the koff (rabbit IL-17A) was 2.23e-05 s⁻¹ and the kon (rabbit IL-17A) was 7.03e+06 M⁻¹ s⁻¹.

B4: IL17-B6-17 (antibody, V domains shown)
VH: EVQLVQSGAEVKKPGSSVKVSCKASGGSFGGYGIGWVRQAPGQGLEWMGGITPFFGFADYAQKFQGRVTITADESTTTAYMELSGLTSDDTAVYYCARDPNEFWNGYYSTHDFDSWGQGTTVTVSS
VL: B3 VL with N28D, S43P, I55T, A84G, S91T, T93S, H96Y, Q100P
In the case of B4, the Kd (mouse IL-17A [6]) is reported as 0.113 nM, the koff (mouse IL-17A [6]) is reported as 0.000169 s⁻¹ and the kon (mouse IL-17A [6]) is reported as 1.49e+06 M⁻¹ s⁻¹. It also gave a Kd (human IL-17A/F [7]) of 0.0017 nM, a koff (human IL-17A/F [7]) of 1.23e-05 s⁻¹ and a kon (human IL-17A/F [7]) of 7.23e+06 M⁻¹ s⁻¹. The Kd (cyno IL-17A) was 0.00103 nM, the koff (cyno IL-17A) was 1.05e-05 s⁻¹ and the kon (cyno IL-17A) was 1.02e+07 M⁻¹ s⁻¹. For the same binder, the Kd (rat IL-17A [8]) was 0.00964 nM, the koff (rat IL-17A [8]) was 5.91e-05 s⁻¹ and the kon (rat IL-17A [8]) was 6.13e+06 M⁻¹ s⁻¹. For the same binder, the Kd (human IL-17A [9]) was 0.000785 nM, the koff (human IL-17A [9]) was 3.1e-06 s⁻¹ and the kon (human IL-17A [9]) was 3.95e+06 M⁻¹ s⁻¹. For the same binder, the Kd (rabbit IL-17A) was 0.00351 nM, the koff (rabbit IL-17A) was 3.36e-05 s⁻¹ and the kon (rabbit IL-17A) was 9.58e+06 M⁻¹ s⁻¹.
